Reference: publication PMC6140506 (Proceedings of the National Academy of Sciences of the …, 2018)
Read-outs that look alike come from different tables or passages of the source.

What was measured:
Experiment in all cases: SPR
Phl p 7 wild-type = Phl p 7 wild-type (Timothy grass, UniProt O82040)
Ole e 3 [1] = target: T1, Ole e 3 (Olea europaea (common olive), UniProt O81092)
Bet v 4 [2] = target: Bet v 4 (UniProt Q39419)
Ole e 3 [3] = target: T1, Ole e 3; remark: listed apart in the source
Bet v 4 [4] = target: Bet v 4 (UniProt Q39419); remark: listed apart in the source

Bet v 4, sequence (Q39419 whole entry): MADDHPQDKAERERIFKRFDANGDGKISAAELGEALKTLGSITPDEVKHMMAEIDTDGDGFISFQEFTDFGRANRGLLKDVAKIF
Phl p 7 wild-type, sequence (O82040 whole entry): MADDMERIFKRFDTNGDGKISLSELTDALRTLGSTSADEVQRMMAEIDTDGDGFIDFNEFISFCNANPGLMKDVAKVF

Row | Binder | Kd (Phl p 7 wild-type) [pM] | binding result (Ole e 3 [1]) | fold weaker binding than Phl p 7 (Bet v 4 [2]) [fold] | binding result (Ole e 3 [3]) | fold weaker binding than Phl p 7 (Bet v 4 [4]) [fold]
1 | 102.1F10 IgE (antibody, V domains shown) VH: QVQLVQSGAEVRNPGASVKVSCKASGYTFTSYAIHWVRQAPGHRLEWVGRINTDNGNTKYSQKFHGRVALSRDTSASTTYMDLSSLNSEDTAVYYCARAFYYSSGVMFDSWGQGALVTVSS VL: QSALTQPPSVSGAPGQRVSISCTGGSSNFGAGYDVHWYQQLPATAPKLLIYGNNNRPSGVPDRFSGSKSGTSASLAITGLQAEDEGDYFCQSFDTSLSGWIFGGGTKLTVL | 170 | binds | 1000 |  | 
2 | 102.1F10 Fab (Fab, V domains shown) VH: QVQLVQSGAEVRNPGASVKVSCKASGYTFTSYAIHWVRQAPGHRLEWVGRINTDNGNTKYSQKFHGRVALSRDTSASTTYMDLSSLNSEDTAVYYCARAFYYSSGVMFDSWGQGALVTVSS VL: QSALTQPPSVSGAPGQRVSISCTGGSSNFGAGYDVHWYQQLPATAPKLLIYGNNNRPSGVPDRFSGSKSGTSASLAITGLQAEDEGDYFCQSFDTSLSGWIFGGGTKLTVL |  |  |  | binds | 1000
